Assay results published in the supplement of paper PMC9112550, “Optimization of the antimicrobial peptide Bac7 by deep mutational scanning” (BMC Biology, 2022).

System: Escherichia coli TOP10
Assay: shrunken log2 fold change of peptide-encoding DNA abundance (4.5 h post-induction vs induction); higher = less antimicrobial activity (less host growth inhibition)
Details: time post-induction: 4.5 h; library: site-saturation at positions 5, 18, 19, 20
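Further: peptides expressed intracellularly from a pBAD plasmid library in pooled LB shake-flask culture, induced with 0.3% L-arabinose, DNA abundance read by NGS, three biological replicates, DESeq2 with apeglm shrinkage.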

Row | Sequence | shrunken log2 fold change
1 | RRIRWRPPRLPRPRPRPFMLPRP | -0.174
2 | RRIRWRPPRLPRPRPRPFNSPRP | -0.207
3 | RRIRWRPPRLPRPRPRPFQYPRP | -0.199
4 | RRIRWRPPRLPRPRPRPFRYPRP | -0.501
5 | RRIRWRPPRLPRPRPRPFSVPRP | -0.159
6 | RRIRWRPPRLPRPRPRPFVPPRP | -0.266
7 | RRIRWRPPRLPRPRPRPFVQPRP | -0.184
8 | RRIRWRPPRLPRPRPRPFYHPRP | -0.0855
9 | RRIRWRPPRLPRPRPRPGCHPRP | 0.253
10 | RRIRWRPPRLPRPRPRPGCLPRP | 0.792
11 | RRIRWRPPRLPRPRPRPGCWPRP | 1.09
12 | RRIRWRPPRLPRPRPRPGDHPRP | -0.0565
13 | RRIRWRPPRLPRPRPRPGFFPRP | 0.26
14 | RRIRWRPPRLPRPRPRPGFKPRP | -0.143
15 | RRIRWRPPRLPRPRPRPGFPPRP | -0.0683
16 | RRIRWRPPRLPRPRPRPGGEPRP | 0.107
17 | RRIRWRPPRLPRPRPRPGMQPRP | 0.775
18 | RRIRWRPPRLPRPRPRPGQEPRP | 0.617
19 | RRIRWRPPRLPRPRPRPGQQPRP | -0.17
20 | RRIRWRPPRLPRPRPRPGTAPRP | 0.392
21 | RRIRWRPPRLPRPRPRPGTFPRP | -0.0686
22 | RRIRWRPPRLPRPRPRPGTPPRP | 0.356
23 | RRIRWRPPRLPRPRPRPGVKPRP | 0.505
24 | RRIRWRPPRLPRPRPRPGYNPRP | -0.0807
25 | RRIRWRPPRLPRPRPRPGYSPRP | -0.191

Row | Sequence | shrunken log2 fold change
26 | RRIRWRPPRLPRPRPRPHCNPRP | -0.465
27 | RRIRWRPPRLPRPRPRPHCRPRP | 0.0889
28 | RRIRWRPPRLPRPRPRPHDCPRP | -0.00141
29 | RRIRWRPPRLPRPRPRPHEAPRP | 0.273
30 | RRIRWRPPRLPRPRPRPHFPPRP | 0.064
31 | RRIRWRPPRLPRPRPRPHFWPRP | 0.27
32 | RRIRWRPPRLPRPRPRPHFYPRP | -0.117
33 | RRIRWRPPRLPRPRPRPHGGPRP | -0.0606
34 | RRIRWRPPRLPRPRPRPHHDPRP | -0.708
35 | RRIRWRPPRLPRPRPRPHHGPRP | -0.234
36 | RRIRWRPPRLPRPRPRPHHKPRP | -0.23
37 | RRIRWRPPRLPRPRPRPHHTPRP | -0.313
38 | RRIRWRPPRLPRPRPRPHILPRP | -0.358
39 | RRIRWRPPRLPRPRPRPHIPPRP | -0.227
40 | RRIRWRPPRLPRPRPRPHKMPRP | -0.146
41 | RRIRWRPPRLPRPRPRPHLAPRP | 0.265
42 | RRIRWRPPRLPRPRPRPHLGPRP | 0.14
43 | RRIRWRPPRLPRPRPRPHLKPRP | -0.0706
44 | RRIRWRPPRLPRPRPRPHNMPRP | -0.623
45 | RRIRWRPPRLPRPRPRPHPEPRP | 0.275
46 | RRIRWRPPRLPRPRPRPHQEPRP | 0.0101
47 | RRIRWRPPRLPRPRPRPHQNPRP | -0.00311
48 | RRIRWRPPRLPRPRPRPHRRPRP | -0.0988
49 | RRIRWRPPRLPRPRPRPHSDPRP | 0.0062
50 | RRIRWRPPRLPRPRPRPHSVPRP | 0.0489

Row | Sequence | shrunken log2 fold change
51 | RRIRWRPPRLPRPRPRPHTCPRP | -0.00188
52 | RRIRWRPPRLPRPRPRPHTIPRP | -0.533
53 | RRIRWRPPRLPRPRPRPHTMPRP | -0.00694
54 | RRIRWRPPRLPRPRPRPHVQPRP | -0.209
55 | RRIRWRPPRLPRPRPRPHWHPRP | -0.0347
56 | RRIRWRPPRLPRPRPRPHWLPRP | 0.243
57 | RRIRWRPPRLPRPRPRPHWMPRP | 0.289
58 | RRIRWRPPRLPRPRPRPHYAPRP | -0.0597
59 | RRIRWRPPRLPRPRPRPHYFPRP | -0.087
60 | RRIRWRPPRLPRPRPRPHYGPRP | -0.0711
61 | RRIRWRPPRLPRPRPRPIEDPRP | -0.00101
62 | RRIRWRPPRLPRPRPRPIEIPRP | -0.101
63 | RRIRWRPPRLPRPRPRPIELPRP | -0.0796
64 | RRIRWRPPRLPRPRPRPIENPRP | 0.0363
65 | RRIRWRPPRLPRPRPRPIFGPRP | 0.0623
66 | RRIRWRPPRLPRPRPRPIHHPRP | -0.332
67 | RRIRWRPPRLPRPRPRPIHMPRP | -0.246
68 | RRIRWRPPRLPRPRPRPIHPPRP | -0.117
69 | RRIRWRPPRLPRPRPRPINCPRP | -0.889
70 | RRIRWRPPRLPRPRPRPIQAPRP | -0.0237
71 | RRIRWRPPRLPRPRPRPIQGPRP | 0.265
72 | RRIRWRPPRLPRPRPRPIQQPRP | 0.0331
73 | RRIRWRPPRLPRPRPRPIREPRP | 0.411
74 | RRIRWRPPRLPRPRPRPISEPRP | 0.00628
75 | RRIRWRPPRLPRPRPRPITAPRP | 0.0334

Row | Sequence | shrunken log2 fold change
76 | RRIRWRPPRLPRPRPRPIVLPRP | -0.628
77 | RRIRWRPPRLPRPRPRPIWSPRP | 0.629
78 | RRIRWRPPRLPRPRPRPKAEPRP | -0.015
79 | RRIRWRPPRLPRPRPRPKAYPRP | -0.12
80 | RRIRWRPPRLPRPRPRPKCGPRP | 0.594
81 | RRIRWRPPRLPRPRPRPKEVPRP | 0.0717
82 | RRIRWRPPRLPRPRPRPKFSPRP | 0.346
83 | RRIRWRPPRLPRPRPRPKGNPRP | 0.514
84 | RRIRWRPPRLPRPRPRPKKHPRP | 0.293
85 | RRIRWRPPRLPRPRPRPKLEPRP | 0.808
86 | RRIRWRPPRLPRPRPRPKLTPRP | 0.475
87 | RRIRWRPPRLPRPRPRPKLVPRP | 0.00348
88 | RRIRWRPPRLPRPRPRPKNCPRP | -0.122
89 | RRIRWRPPRLPRPRPRPKPDPRP | 0.115
90 | RRIRWRPPRLPRPRPRPKPLPRP | 0.375
91 | RRIRWRPPRLPRPRPRPKQGPRP | 0.125
92 | RRIRWRPPRLPRPRPRPKQWPRP | 0.155
93 | RRIRWRPPRLPRPRPRPKSNPRP | -0.164
94 | RRIRWRPPRLPRPRPRPKSPPRP | 0.819
95 | RRIRWRPPRLPRPRPRPKTCPRP | 0.174
96 | RRIRWRPPRLPRPRPRPKTDPRP | 0.204
97 | RRIRWRPPRLPRPRPRPKWKPRP | 0.401
98 | RRIRWRPPRLPRPRPRPKWNPRP | -0.095
99 | RRIRWRPPRLPRPRPRPLANPRP | 0.552
100 | RRIRWRPPRLPRPRPRPLDIPRP | 1.52

Row | Sequence | shrunken log2 fold change
101 | RRIRWRPPRLPRPRPRPLDSPRP | 0.0674
102 | RRIRWRPPRLPRPRPRPLEQPRP | 0.392
103 | RRIRWRPPRLPRPRPRPLFFPRP | -0.00386
104 | RRIRWRPPRLPRPRPRPLFRPRP | -0.0807
105 | RRIRWRPPRLPRPRPRPLGHPRP | 0.035
106 | RRIRWRPPRLPRPRPRPLGLPRP | 0.116
107 | RRIRWRPPRLPRPRPRPLHRPRP | 0.0218
108 | RRIRWRPPRLPRPRPRPLKYPRP | -0.384
109 | RRIRWRPPRLPRPRPRPLLYPRP | 0.0998
110 | RRIRWRPPRLPRPRPRPLMQPRP | 0.217
111 | RRIRWRPPRLPRPRPRPLMRPRP | 0.858
112 | RRIRWRPPRLPRPRPRPLMTPRP | 0.47
113 | RRIRWRPPRLPRPRPRPLNKPRP | -0.397
114 | RRIRWRPPRLPRPRPRPLNNPRP | -0.323
115 | RRIRWRPPRLPRPRPRPLNQPRP | -0.0739
116 | RRIRWRPPRLPRPRPRPLQDPRP | -0.0523
117 | RRIRWRPPRLPRPRPRPLQNPRP | -0.11
118 | RRIRWRPPRLPRPRPRPLQVPRP | -0.125
119 | RRIRWRPPRLPRPRPRPLSCPRP | 0.154
120 | RRIRWRPPRLPRPRPRPLSEPRP | 0.104
121 | RRIRWRPPRLPRPRPRPLVVPRP | 0.173
122 | RRIRWRPPRLPRPRPRPLWEPRP | 0.0357
123 | RRIRWRPPRLPRPRPRPMAFPRP | -0.0177
124 | RRIRWRPPRLPRPRPRPMAGPRP | 0.0179
125 | RRIRWRPPRLPRPRPRPMCFPRP | 0.0876

Row | Sequence | shrunken log2 fold change
126 | RRIRWRPPRLPRPRPRPMFEPRP | -0.0796
127 | RRIRWRPPRLPRPRPRPMFLPRP | -0.182
128 | RRIRWRPPRLPRPRPRPMFYPRP | -0.395
129 | RRIRWRPPRLPRPRPRPMGCPRP | 0.117
130 | RRIRWRPPRLPRPRPRPMIIPRP | -0.0264
131 | RRIRWRPPRLPRPRPRPMLAPRP | 1
132 | RRIRWRPPRLPRPRPRPMLKPRP | -0.109
133 | RRIRWRPPRLPRPRPRPMLTPRP | 0.391
134 | RRIRWRPPRLPRPRPRPMMRPRP | 1.08
135 | RRIRWRPPRLPRPRPRPMMSPRP | 0.19
136 | RRIRWRPPRLPRPRPRPMNHPRP | -0.426
137 | RRIRWRPPRLPRPRPRPMPIPRP | 0.0953
138 | RRIRWRPPRLPRPRPRPMQFPRP | 0.104
139 | RRIRWRPPRLPRPRPRPMQHPRP | 0.596
140 | RRIRWRPPRLPRPRPRPMQSPRP | 0.185
141 | RRIRWRPPRLPRPRPRPMRRPRP | 0.481
142 | RRIRWRPPRLPRPRPRPMRWPRP | 0.648
143 | RRIRWRPPRLPRPRPRPMSDPRP | 0.0237
144 | RRIRWRPPRLPRPRPRPMSPPRP | 0.000834
145 | RRIRWRPPRLPRPRPRPMTTPRP | 0.1
146 | RRIRWRPPRLPRPRPRPMVAPRP | 0.457
147 | RRIRWRPPRLPRPRPRPMVCPRP | 0.199
148 | RRIRWRPPRLPRPRPRPMVRPRP | 0.0171
149 | RRIRWRPPRLPRPRPRPMWTPRP | 0.171
150 | RRIRWRPPRLPRPRPRPMYCPRP | 0.0174
